Data from publication doi:10.1101/2024.10.13.618061 (bioRxiv, 2024).

Target: the molecule itself
Assay: negative-staining EM

B1: wheat Sr35 (Triticum monococcum; TmSr35) [change]/[change], untagged (receptor)
chain: MEIAMGAIGSELPKEGELLIGEITLEKKVRKGIESLITELKLMQAVLSKVSKVPADQLDEGVKIWAGNVKELSYQMEDIVDAFMVRVGDGGESTNPKNRVKKILKKVKKLFKNGKDLHRISAALEEVVLQAKQLAELRQRYEQEMRDTSANTSVDPRMMALYTDVTELVGIEETRDKLINMLTEGDDWSKHPLKTISIVGFGGLGKTTLAKAAYDKIKVQFDCGAFVSVSRNPEMKKVLKDILYGLDKVKYENIHNAARDEKYLIDDIIEFLNDKRYLIVIDDIWNEKAWELIKCAFSKKSPGSRLITTTRNVSVSEACCSSEDDIYRMEPLSNDVSRTLFCKRIFSQEEGCPQELLKVSEEILKKCGGVPLAIITIASLLANKGHIKAKDEWYALLSSIGHGLTKNRSLEQMKKILLFSYYDLPSYLKPCLLYLSIFPEDREIRRARLIWRWISEGFVYSEKQDISLYELGDSYFNELVNRSMIQPIGIDDEGKVKACRVHDMVLDLICSLSSEENFVTILDDPRRKMPNSESKVRRLSIQNSKIDVDTTRMEHMRSVTVFSDNVVGKVLDISRFKVLRVLDLEGCHVSDVGYVGNLLHLRYLGLKGTHVKDLPMEIGKLQFLLTLDLRGTKIEVLPWSVVQLRRLMCLYVDYGMKLPSGIGNLTFLEVLDDLGLSDVDLDFVKELGRLTKLRVLRLDFHGFDQSMGKALEESISNMYKLDSLDVFVNRGLINCLSEHWVPPPRLCRLAFPSKRSWFKTLPSWINPSSLPLLSYLDITLFEVRSEDIQLLGTLPALVYLEIWNYSVFEEAHEVEAPVLSSGAALFPCATECRFIGIGAVPSMFPQGAAPRLKRLWFTFPAKWISSENIGLGMRHLPSLQRVVVDVISEGASREEADEAEAALRAAAEDHPNRPILDIW
Q: Which “stoichiometry N” value does the source give for B1 here?
A: 5
